Measurements published in the Immune Epitope Database (IEDB).

Key:
[1] = target: HLA-A*23:01; assay: IEDB peptide-MHC binding, purified MHC/competitive/fluorescence; filed as Kd, often an IC50 or EC50 that approximates it; ≥ and ≤ were set here for values at or beyond the usual limits of such assays
[2] = target: HLA-B*18:01; assay: as above
[3] = target: HLA-B*39:01; assay: as above
[4] = target: HLA-A*02:03; assay: as above
[5] = target: HLA-A*26:01; assay: as above
[6] = target: HLA-B*46:01; assay: as above
[7] = target: HLA-A*02:16; assay: as above
[8] = target: HLA-A*02:19; assay: as above
[9] = target: HLA-A*03:01; assay: as above
[10] = target: HLA-A*24:03; assay: as above
[11] = target: HLA-A*02:11; assay: as above
[12] = target: HLA-B*51:01; assay: as above
[13] = target: HLA-A*02:01; assay: as above
[14] = target: HLA-B*27:03; assay: as above
[15] = target: HLA-A*02:12; assay: as above
[16] = target: HLA-A*68:02; assay: as above; details: source organism: Burkholderia orbicola
[17] = target: HLA-A*29:02; assay: as above
[18] = target: HLA-B*15:01; assay: as above
[19] = target: HLA-B*57:01; assay: as above
[20] = target: HLA-A*69:01; assay: as above
[21] = target: HLA-B*15:17; assay: as above
[22] = target: HLA-B*08:01; assay: IEDB peptide-MHC binding, purified MHC/competitive/fluorescence; ≥ and ≤ were set here for values at or beyond the usual limits of such assays; details: source organism: Zaire ebolavirus
[23] = target: HLA-A*24:02; assay: as above; details: source organism: Zaire ebolavirus
[24] = target: HLA-A*02:01; assay: as above; details: source organism: Zaire ebolavirus
[25] = target: HLA-A*02:01; assay: IEDB peptide-MHC binding, purified MHC/direct/fluorescence; filed as Kd, often an IC50 or EC50 that approximates it; ≥ and ≤ were set here for values at or beyond the usual limits of such assays
[26] = target: HLA-B*07:02; assay: IEDB peptide-MHC binding, purified MHC/competitive/fluorescence; ≥ and ≤ were set here for values at or beyond the usual limits of such assays; details: source organism: Zaire ebolavirus
[27] = target: HLA-A*11:01; assay: as above; details: source organism: Zaire ebolavirus
[28] = target: HLA-A*03:01; assay: as above; details: source organism: Zaire ebolavirus
[29] = target: HLA-B*15:01; assay: as above; details: source organism: Zaire ebolavirus
[30] = target: HLA-B*18:01; assay: IEDB peptide-MHC binding, purified MHC/direct/fluorescence; filed as Kd, often an IC50 or EC50 that approximates it; ≥ and ≤ were set here for values at or beyond the usual limits of such assays; details: source organism: Influenza A virus (A/equine/Massachussetts/213/2003(H3N8))
[31] = target: HLA-A*01:01; assay: as above
[32] = target: HLA-B*40:01; assay: as above
[33] = target: HLA-B*07:02; assay: as above
[34] = target: HLA-B*15:09; assay: as above; details: source organism: Influenza A virus(A/swine/Henan/8/2004(H9N2))
[35] = target: HLA-B*46:01; assay: as above
[36] = target: HLA-A*11:01; assay: as above
[37] = target: HLA-B*58:01; assay: as above
[38] = target: HLA-A*24:02; assay: as above
[39] = target: HLA-A*03:01; assay: as above
[40] = target: HLA-B*27:05; assay: as above
[41] = target: HLA-B*15:01; assay: as above
[42] = target: HLA-A*69:01; assay: as above; details: source organism: Influenza A virus (A/equine/Massachussetts/213/2003(H3N8))
[43] = target: HLA-A*31:01; assay: as above; details: source organism: Influenza A virus (A/equine/Massachussetts/213/2003(H3N8))
[44] = target: HLA-B*44:02; assay: as above; details: source organism: Influenza A virus (A/WSN/1933(H1N1))
[45] = target: HLA-B*08:01; assay: as above; details: source organism: Influenza A virus (A/WSN/1933(H1N1))
[46] = source organism: Burkholderia orbicola
[47] = source organism: Brucella melitensis bv. 1 str. 16M
[48] = source organism: Zaire ebolavirus
[49] = source organism: Influenza A virus (A/equine/Massachussetts/213/2003(H3N8))
[50] = source organism: Influenza A virus (A/WSN/1933(H1N1))

RIEQLYPFA was tested, and the Kd [1, 46] was at least 20 µM, the Kd [2, 46] was at least 20 µM and the Kd [3, 46] was at least 20 µM. It also gave a Kd [4, 46] of at least 20 µM, a Kd [5, 46] of at least 20 µM and a Kd [6, 46] of at least 20 µM. For the same sequence, the Kd [7, 46] was 0.292 µM, the Kd [8, 46] was at least 20 µM and the Kd [9, 46] was at least 20 µM. The Kd [10, 46] was at least 20 µM, the Kd [11, 46] was at least 20 µM and the Kd [12, 46] was at least 20 µM. For the same sequence, the Kd [13, 46] was at least 20 µM, the Kd [14, 46] was at least 20 µM and the Kd [15, 46] was at least 20 µM. The Kd [16] was at least 20 µM, the Kd [17, 46] was at least 20 µM and the Kd [18, 46] was at least 20 µM. For the same sequence, the Kd [19, 46] was at least 20 µM, the Kd [20, 46] was at least 20 µM and the Kd [21, 46] was at least 20 µM.

With NHKNKFMAI the IC50 [22] was 15.9 µM and the IC50 [23] was 19.4 µM.

AVGVVCTGL was tested, and the Kd [1, 47] was at least 20 µM, the Kd [2, 47] was at least 20 µM and the Kd [3, 47] was at least 20 µM. The Kd [4, 47] was at least 20 µM, the Kd [5, 47] was at least 20 µM and the Kd [6, 47] was at least 20 µM. For the same sequence, the Kd [7, 47] was 0.273 µM, the Kd [8, 47] was at least 20 µM and the Kd [9, 47] was at least 20 µM. It also gave a Kd [10, 47] of at least 20 µM, a Kd [11, 47] of at least 20 µM and a Kd [12, 47] of at least 20 µM. The Kd [13, 47] was at least 20 µM, the Kd [14, 47] was at least 20 µM and the Kd [15, 47] was at least 20 µM. The Kd [17, 47] was at least 20 µM, the Kd [18, 47] was at least 20 µM and the Kd [19, 47] was at least 20 µM. For the same sequence, the Kd [20, 47] was at least 20 µM and the Kd [21, 47] was at least 20 µM.

In the case of TNFLIKFLL, the IC50 [22] is reported as at least 523 µM, the IC50 [23] is reported as 3.2 µM and the IC50 [24] is reported as at least 181 µM.

With RLMRTNFLI the Kd [25, 48] was 0.0175 µM, the IC50 [26] was 15.9 µM and the IC50 [22] was 58.7 µM. It also gave an IC50 [27] of 3.95 µM, an IC50 [23] of 0.0213 µM and an IC50 [28] of 3.42 µM. It also gave an IC50 [24] of 0.514 µM, an IC50 [29] of 11.4 µM and a Kd [2, 48] of at least 20 µM. For the same sequence, the Kd [5, 48] was at least 20 µM and the Kd [6, 48] was at least 20 µM.

ILKGKFQTA gave a Kd [30] of at least 20 µM, a Kd [31, 49] of at least 20 µM and a Kd [32, 49] of at least 20 µM. The Kd [33, 49] was at least 20 µM, the Kd [34] was at least 20 µM and the Kd [35, 49] was at least 20 µM. The Kd [36, 49] was at least 20 µM, the Kd [37, 49] was at least 20 µM and the Kd [38, 49] was at least 20 µM. It also gave a Kd [39, 49] of at least 20 µM, a Kd [40, 49] of at least 20 µM and a Kd [25, 49] of at least 20 µM. The Kd ([41]; source organism: Influenza A virus (A/Puerto Rico/8/34/Mount Sinai(H1N1))) was 5.72 µM, the Kd [42] was at least 20 µM and the Kd [43] was at least 20 µM.

With NLEPGTFDL the Kd [31, 50] was at least 20 µM, the Kd [32, 50] was at least 20 µM and the Kd [44] was at least 20 µM. The Kd [33, 50] was at least 20 µM, the Kd [45] was at least 20 µM and the Kd [35, 50] was at least 20 µM. It also gave a Kd [36, 50] of at least 20 µM, a Kd [37, 50] of at least 20 µM and a Kd [38, 50] of at least 20 µM. The Kd [39, 50] was at least 20 µM, the Kd [40, 50] was at least 20 µM and the Kd [41, 50] was at least 20 µM.
